Source: publication PMC6843132, “The Plant NF-Y DNA Matrix In Vitro and In Vivo” (Plants, 2019)

Molecular target: T1, At NF-YB2/NF-YC3 histone fold domain (HFD) dimer (A. thaliana, UniProt Q9FGJ3 24-116; Q9ZVL3 55-148)
T1 construct: Nuclear factor Y subunit B2 (AtNF-YB2), Arabidopsis thaliana, aa 24-116, histone fold domain; Nuclear factor Y subunit C3 (AtNF-YC3), Arabidopsis thaliana, aa 55-148, histone fold domain; Preformed heterodimer; the 6His tag was removed with thrombin before gel filtration; also called AtNF-YB2/AtNF-YC3; HFD subunits; source: E. coli, co-expressed, purified (IMAC, thrombin cleavage, gel …)
T1 sequence (looked up) 1: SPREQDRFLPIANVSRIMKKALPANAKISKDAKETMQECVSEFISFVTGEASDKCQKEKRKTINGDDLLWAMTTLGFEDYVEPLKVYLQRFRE
T1 sequence (looked up) 2: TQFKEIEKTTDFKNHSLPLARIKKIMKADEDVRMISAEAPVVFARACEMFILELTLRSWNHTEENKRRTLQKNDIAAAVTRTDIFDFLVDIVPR
Experiment: native gel or EMSA; NF-YA subunit (60-240 nM) with HFD dimer (30 nM) and Cy5-labelled 31 bp CAB2 CCAAT DNA probe (20 nM); 12 mM Tris-HCl pH 8.0, 50 mM NaCl, 50 mM KCl, 5 mM MgCl2, 30 °C 30 min; 6% polyacrylamide, 0.25X TBE; trimer read out as the shifted DNA complex
Settings: both partners purified

Binder | binding result
AtNF-YA2-6His (aa 134-207) (domain or fragment, Nuclear factor Y subunit A2 (AtNF-YA2), Arabidopsis thaliana, aa 134-207, evolutionarily conserved domain; source: E. coli, purified (IMAC); not shown: His6, C-terminal, kept) not shown | binds
AtNF-YA6-6His (aa 170-237) (domain or fragment, Nuclear factor Y subunit A6 (AtNF-YA6), Arabidopsis thaliana, aa 170-237, evolutionarily conserved domain; source: E. coli, purified (IMAC); not shown: His6, C-terminal, kept) not shown | binds
